Target: T1, Mcl-1 (Mus musculus, UniProt P97287)
T1 construct: GST (cleaved yes); made in house; host or cells: E. coli
Assay: Phage ELISA (titration and competition) of phage-displayed BH3 domains
Assay type: binding
Conditions: Bak BH3 mutants; from Table 4e
Source text: In order to create a FLAG-tagged form of the sequence, an oligonucleotide encoding the FLAG epitope was employed to loop-in the required sequence at the N-terminus of the peptide sequences, already fused to gene 3 as described above, using the Kunkel mutagenesis method (Kunkel et al. Methods Enzymol 204:125-139, 1991). For the alanine scanning constructs and other point mutations of the BimBH3 or other BH3 sequence, oligonucleotides with the desired codon mismatch were employed in Kunkel mutagenesis reactions on the FLAG-BimBH3 or FLAG-BadBH3 template. […]
All ELISA's were performed as described previously (Fairlie et al. J Biol Chem 279:2125-2134, 2004). […] Following washing with PBS/Tween, bound phage were detected using a horseradish peroxidase-conjugated anti-M13 antibody. […]
In an initial assay, the BimBH3 and other BH3 phage were tested for their ability to bind directly to immobilised Bcl-xL and Mcl-1. […] The specificity of the interactions were further assessed using a competition assay in which phage binding to the immobilised protein was competed with the corresponding recombinant protein in solution. The IC50 values obtained are as presented in Table 3 and were very similar to those determined with BimBH3 and BadBH3 synthetic peptides as measured by surface plasmon resonance on a BIAcore instrument (Chen et al. 2005 supra) and using isothermal calorimetry (unpublished data). […]

T1 sequence (P97287 152-308 limits assumed): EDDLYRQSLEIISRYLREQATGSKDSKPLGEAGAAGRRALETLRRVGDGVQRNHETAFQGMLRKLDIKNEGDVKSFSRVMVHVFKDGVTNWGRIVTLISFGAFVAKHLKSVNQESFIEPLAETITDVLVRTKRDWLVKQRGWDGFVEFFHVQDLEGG

Row | Substance | selectivity among pro-survival proteins, in words
1 | I19A (PSSTMGQVGRQLAIIGDDANRRYDSE) [Bim I19A] | selective for Mcl-1
2 | V8A (PSSTMGQAGRQLAIIGDDINRRYDSE) [Bim V8A] | selective for Mcl-1

Reference: patent publication US8686110B2, “Therapeutic pro-apoptotic BH3-like molecules and methods for generating and/or selecting the same” (The Walter and Eliza Hall Institute of Medical Research, priority 2005, dated 2014)
